Values joined by “and” are separate entries in the source; they are usually repeats but may differ in a detail not shown here. Identical values can stand only once.
What was measured:
[1] = system: cyclin A2, cyclin D1, cyclin D2, cyclin D3, cyclin E1, CDK4, CDK9, Oct4, Sox2, c-Myc, Lin28; test: Western blotting of cell cycle regulators and pluripotency factors in MSCs; assay type: cell-based, human; details: EpEX 3 μg/mL
Method: (§1) The proliferation of MSCs was examined by measuring doubling time. MSCs were treated with EpEX (3 μg/mL) for 24 and 48 h. Cell number was counted and then doubling time was calculated. MSCs were treated with EpEX (3 μg/mL) for the indicated times. After treatment, protein expression of cell cycle regulators (cyclin D1, cyclin D2, cyclin D3, cyclin E1, CDK4 and CDK9) and pluripotency factors (Oct4, Sox2, c-Myc, and Lin28) was examined by Western blotting.
Phospho-EGFR (Tyr845) was detected by Western blotting. […] After treatment, cell cycle progression was investigated by flow cytometry with PI staining. Fraction of cells in each phase (G1, S, G2/M) of the cell cycle was evaluated. Cells that expressed EGFR shRNA or shLuc were treated with EpEX for 18 h. After treatment, cell cycle progression was investigated by flow cytometry with PI staining. Fraction of cells in each phase (G1, S, G2/M) of the cell cycle was evaluated. […]
After treatment, the protein levels of total STAT3 and phospho-STAT3 (Tyr705) were examined by Western blotting. […] Fraction of cells in each phase (G1, S, G2/M) of the cell cycle was evaluated. […] Fraction of cells in each phase (G1, S, G2/M) of the cell cycle was evaluated. […]
The expression of let-7 was detected by qPCR. […] The expression of let-7 was detected by qPCR. […]

[2] = system: human bone marrow-derived MSCs; test: MSC doubling time (cell number counted); assay type: cell-based
Method: as §1
All experiments with primary human cells were conducted in accordance with relevant guidelines and regulations. Human primary bone marrow mesenchymal stem cells (BMMSCs) were purchased from LONZA and were cultured with Dulbecco's Modified Eagle Media-low glucose (DMEM-LG) medium containing 16.6% FBS, 1 mM L-glutamine (Invitrogen), 100 μg/ml Penicillin/Streptomycin (Gibco). All cells were cultured at 37° C. and 5% CO2. All experiments on primary cells were performed within 10 passages.
We used human bone marrow-derived MSCs to study the effects of EpEX and first investigated whether EpEX promotes cell proliferation of MSCs. […] Next, we examined the effect of EpEX on cell cycle progression by flow cytometry with propidium iodide (PI) staining. […] EpCAM has been reported to enhance cell cycle progression through upregulation of the proto-oncogene c-Myc and cyclin A/E (Munz et al., 2004). […]

B1: EpEX: extracellular domain of human EpCAM, 265 amino acids in length (SEQ ID NO: 2) (protein, listed as Homo sapiens)
chain: MAPPQVLAFGLLLAAATATFAAAQEECVCENYKLAVNCFVNNNRQCQCTSVGAQNTVICSKLAAKCLVMKAEMNGSKLGRRAKPEGALQNNDGLYDPDCDESGLFKAKQCNGTSMCWCVNTAGVRRTDKDTEITCSERVRTYWIIIELKHKAREKPYDSKSLRTALQKEITTRYQLDPKFITSILYENNVITIDLVQNSSQKTQNDVDIADVAYYFEKDVKGESLFHSKKMDLTVNGEQLDLDPGQTLIYYVDEKAPEFSMQGLK
With B1 the “protein expression of cell cycle regulators (cyclin A2, D1, D2, D3, E1, CDK4, CDK9)” value [1] was “significantly increased”, the “protein expression of pluripotency markers (Oct4, Sox2, c-Myc, Lin28)” value [1] was “significantly increased” and the MSC doubling time ([2]; P3, EpEX 3 μg/mL (0 μg/mL: 17.6 ± 0.3 h)) was 16.1 ± 0.1 h. The MSC doubling time ([2]; P9, EpEX 3 μg/mL (0 μg/mL: 38.2 ± 1.7 h)) was 22.5 h and 22.5 ± 0.4 h.
